What follows are substances tested on CD8+ T cells (assay: In vitro T-cell priming assay (immunogenicity) with artificial APCs loaded with peptide/MHC complexes and anti-CD28). Settings: CD8+ T cells of healthy HLA-A*02 donors, multimer staining, Table 13a.
Type: cell-based, human
Text: In order to obtain information regarding the immunogenicity of the TUMAPs of the present invention, the inventors performed investigations using an in vitro T-cell priming assay based on repeated stimulations of CD8+ T cells with artificial antigen presenting cells (aAPCs) loaded with peptide/MHC complexes and anti-CD28 antibody.
In order to perform in vitro stimulations by artificial antigen presenting cells loaded with peptide-MHC complex (pMHC) and anti-CD28 antibody, the inventors first isolated CD8+ T cells from fresh HLA-A*02 leukapheresis products via positive selection using CD8 microbeads (Miltenyi Biotec, Bergisch-Gladbach, Germany) of healthy donors obtained from the University clinics Mannheim, Germany, after informed consent.
PBMCs and isolated CD8+ lymphocytes were incubated in T-cell medium (TCM) until use consisting of RPMI-Glutamax (Invitrogen, Karlsruhe, Germany) supplemented with 10% heat inactivated human AB serum (PAN-Biotech, Aidenbach, Germany), 100 U/ml Penicillin/100 μg/ml Streptomycin (Cambrex, Cologne, Germany), 1 mM sodium pyruvate (CC Pro, Oberdorla, Germany), 20 μg/ml Gentamycin (Cambrex). 2.5 ng/ml IL-7 (PromoCell, Heidelberg, Germany) and 10 U/ml IL-2 (Novartis Pharma, Nümberg, Germany) were also added to the TCM at this step.
Generation of pMHC/anti-CD28 coated beads, T-cell stimulations and readout was performed in a highly defined in vitro system using four different pMHC molecules per stimulation condition and 8 different pMHC molecules per readout condition.
The purified co-stimulatory mouse IgG2a anti human CD28 Ab 9.3 (Jung et al., 1987) was chemically biotinylated using Sulfo-N-hydroxysuccinimidobiotin as recommended by the manufacturer (Perbio, Bonn, Germany). Beads used were 5.6 μm diameter streptavidin coated polystyrene particles (Bangs Laboratories, Illinois, USA).
800.000 beads/200 μl were coated in 96-well plates in the presence of 4×12.5 ng different biotin-pMHC, washed and 600 ng biotin anti-CD28 were added subsequently in a volume of 200 μl. Stimulations were initiated in 96-well plates by co-incubating […] CD8+ T cells with 2×10^5 washed coated beads in 200 μl TCM supplemented with 5 ng/ml IL-12 (PromoCell) for 3 days at 37° C. Half of the medium was then exchanged by fresh TCM supplemented with 80 U/ml IL-2 and incubating was continued for 4 days at 37° C. This stimulation cycle was performed for a total of three times. For the pMHC multimer readout using 8 different pMHC molecules per condition, a two-dimensional combinatorial coding approach was used as previously described (Andersen et al., 2012) with minor modifications encompassing coupling to 5 different fluorochromes. Finally, multimeric analyses were performed by staining the cells with Live/dead near IR dye (Invitrogen, Karlsruhe, Germany), CD8-FITC antibody clone SK1 (BD, Heidelberg, Germany) and fluorescent pMHC multimers. For analysis, a BD LSRII SORP cytometer equipped with appropriate lasers and filters was used. Peptide specific cells were calculated as percentage of total CD8+ cells. Evaluation of multimeric analysis was done using the FlowJo software (Tree Star, Oreg., USA). In vitro priming of specific multimer+CD8+ lymphocytes was detected by comparing to negative control stimulations.

Row | Substance | Wells positive [%]
1 | 103 (SLVSYLDKV; listed as Homo sapiens) [compound 103] | + (<20% = +)
2 | 102 (GLDPTQFRV; listed as Homo sapiens) [compound 102] | ++++ (>=70% = ++++)

Same assay, conditions: CD8+ T cells of healthy HLA-A*02 donors, multimer staining, Table 13b

Row | Substance | Wells positive [%]
3 | 29 (LLWEFPSMA; listed as Homo sapiens) [compound 29] | ++ (20-49% = ++)

Each substance was assayed against HLA-A*02:01 (Homo sapiens, UniProt P04439, D140Y/D185E/D98H/E176V/E277Q/G131W/G231S/I119V/I121R/I166T/I218V/L300P/L318F/N151K/N90K/P208A/P217A/Q86G/Q94H/R138H/R169H/T345S) (assay: MHC binding assay (UV-ligand exchange, β2m ELISA)). Settings: MHC class I binding score; peptide exchange yield, binding to HLA-A*02:01, UV-ligand exchange with β2m ELISA.
Text: Candidate peptides for T cell based therapies according to the present invention were further tested for their MHC binding capacity (affinity).
The individual peptide-MHC complexes were produced by UV-ligand exchange, where a UV-sensitive peptide is cleaved upon UV-irradiation and exchanged with the peptide of interest as analyzed. Only peptide candidates that can effectively bind and stabilize the peptide-receptive MHC molecules prevent dissociation of the MHC complexes. To determine the yield of the exchange reaction, an ELISA was performed based on the detection of the light chain (β2m) of stabilized MHC complexes. The assay was performed as generally described in Rodenko et al. (Rodenko et al., 2006).
96 well MAXISorp plates (NUNC) were coated over night with 2 ug/ml streptavidin in PBS at room temperature, washed 4× and blocked for 1h at 37° C. in 2% BSA containing blocking buffer. Refolded HLA-A*02:01/MLA-001 monomers served as standards, covering the range of 15-500 ng/ml. Peptide-MHC monomers of the UV-exchange reaction were diluted 100 fold in blocking buffer. Samples were incubated for 1 h at 37° C., washed four times, incubated with 2 ug/ml HRP conjugated anti-β2m for 1h at 37° C., washed again and detected with TMB solution that is stopped with […]. Absorption was measured at 450 nm. Candidate peptides that show a high exchange yield (preferably higher than 50%, most preferred higher than 75%) are generally preferred for a generation and production of antibodies or fragments thereof, and/or T cell receptors or fragments thereof, as they show sufficient avidity to the MHC molecules and prevent dissociation of the MHC complexes.

Row | Substance | Peptide exchange
4 | 42 (WITPVIPAL; listed as Homo sapiens) [compound 42] | ++++ (≥75% = ++++)
5 | 60 (LLLATLENL; listed as Homo sapiens) [compound 60] | ++++ (≥75% = ++++)
6 | 43 (AIWSTILIA; listed as Homo sapiens) [compound 43] | ++ (≥20% = ++)
7 | 61 (VLPWQPLLL; listed as Homo sapiens) [compound 61] | ++ (≥20% = ++)
8 | 9 (FLQEGDLISV; listed as Homo sapiens) [compound 9] | ++++ (≥75% = ++++)
9 | 58 (MIISHRALEL; listed as Homo sapiens) [compound 58] | ++ (≥20% = ++)
10 | 30 (LLRLTLLPL; listed as Homo sapiens) [compound 30] | ++ (≥20% = ++)
11 | 29 (LLWEFPSMA; listed as Homo sapiens) [compound 29] | ++++ (≥75% = ++++)
12 | 55 (MVQQEKLFV; listed as Homo sapiens) [compound 55] | +++ (≥50 = +++)
13 | 52 (LAFVSHVLI; listed as Homo sapiens) [compound 52] | ++ (≥20% = ++)
14 | 5 (LVWEVVESV; listed as Homo sapiens) [compound 5] | ++++ (≥75% = ++++)
15 | 12 (HLDSMNVSI; listed as Homo sapiens) [compound 12] | ++++ (≥75% = ++++)
16 | 25 (ISVLNLSAI; listed as Homo sapiens) [compound 25] | ++ (≥20% = ++)
17 | 64 (LLLALRLSL; listed as Homo sapiens) [compound 64] | + (≥10% = +)
18 | 99 (ALMDGSESRFFV; listed as Homo sapiens) [compound 99] | ++++ (≥75% = ++++)
19 | 70 (LLLQIEPAA; listed as Homo sapiens) [compound 70] | ++++ (≥75% = ++++)
20 | 24 (TLTSLNILL; listed as Homo sapiens) [compound 24] | ++++ (≥75% = ++++)
21 | 53 (TISISLSSV; listed as Homo sapiens) [compound 53] | ++++ (≥75% = ++++)
22 | 100 (SLGPPPVGV; listed as Homo sapiens) [compound 100] | ++++ (≥75% = ++++)
23 | 21 (FVFISPSFL; listed as Homo sapiens) [compound 21] | +++ (≥50 = +++)
24 | 56 (IITNLIVNI; listed as Homo sapiens) [compound 56] | +++ (≥50 = +++)
25 | 34 (LLNVEPAGA; listed as Homo sapiens) [compound 34] | ++++ (≥75% = ++++)
26 | 54 (GLSPDQVFL; listed as Homo sapiens) [compound 54] | ++++ (≥75% = ++++)
27 | 17 (VLWDLRPSSLI; listed as Homo sapiens) [compound 17] | ++++ (≥75% = ++++)
28 | 45 (ALYHQSPLL; listed as Homo sapiens) [compound 45] | ++++ (≥75% = ++++)
29 | 69 (LLCPVVLQL; listed as Homo sapiens) [compound 69] | ++++ (≥75% = ++++)

Row | Substance | Peptide exchange
30 | 41 (LMASEGIWESSL; listed as Homo sapiens) [compound 41] | +++ (≥50 = +++)
31 | 62 (SLLGKPGLTI; listed as Homo sapiens) [compound 62] | ++++ (≥75% = ++++)
32 | 14 (LLIEVSEEL; listed as Homo sapiens) [compound 14] | ++++ (≥75% = ++++)
33 | 59 (LAASTTFLGV; listed as Homo sapiens) [compound 59] | ++++ (≥75% = ++++)
34 | 27 (IAAGVPNTDA; listed as Homo sapiens) [compound 27] | ++ (≥20% = ++)
35 | 57 (YVLMTSLLL; listed as Homo sapiens) [compound 57] | ++++ (≥75% = ++++)
36 | 44 (WLIPRQLAAA; listed as Homo sapiens) [compound 44] | ++++ (≥75% = ++++)
37 | 35 (VLLNSNYPV; listed as Homo sapiens) [compound 35] | ++++ (≥75% = ++++)
38 | 67 (ALKELMGPA; listed as Homo sapiens) [compound 67] | ++ (≥20% = ++)
39 | 10 (SLLDKLSGI; listed as Homo sapiens) [compound 10] | ++++ (≥75% = ++++)
40 | 22 (SLYDVPVGA; listed as Homo sapiens) [compound 22] | ++++ (≥75% = ++++)
41 | 23 (GLEVLDALL; listed as Homo sapiens) [compound 23] | ++ (≥20% = ++)
42 | 11 (ALLPHAPEAV; listed as Homo sapiens) [compound 11] | +++ (≥50 = +++)
43 | 97 (GLIDDKGTIKL; listed as Homo sapiens) [compound 97] | ++++ (≥75% = ++++)
44 | 98 (SLMEVTHDL; listed as Homo sapiens) [compound 98] | ++++ (≥75% = ++++)
45 | 15 (NLVMPLLHI; listed as Homo sapiens) [compound 15] | ++ (≥20% = ++)
46 | 71 (WLMPVMPAL; listed as Homo sapiens) [compound 71] | ++++ (≥75% = ++++)
47 | 8 (ILQSLVPAA; listed as Homo sapiens) [compound 8] | ++++ (≥75% = ++++)
48 | 20 (VLISLPGKV; listed as Homo sapiens) [compound 20] | ++ (≥20% = ++)
49 | 39 (YIYEDEVRL; listed as Homo sapiens) [compound 39] | ++++ (≥75% = ++++)
50 | 28 (SQLEKPETA; listed as Homo sapiens) [compound 28] | +++ (≥50 = +++)
51 | 73 (STTIINLIL; listed as Homo sapiens) [compound 73] | ++ (≥20% = ++)
52 | 63 (LSFKRSLSI; listed as Homo sapiens) [compound 63] | ++ (≥20% = ++)
53 | 66 (ILNELLNSI; listed as Homo sapiens) [compound 66] | ++++ (≥75% = ++++)
54 | 32 (VLSVSAVLGA; listed as Homo sapiens) [compound 32] | +++ (≥50 = +++)
55 | 16 (ALLDAEQSPVAL; listed as Homo sapiens) [compound 16] | ++++ (≥75% = ++++)
